Test results: patent US20170218389A1, “METHODS AND COMPOSITIONS FOR STOMATA REGULATION, PLANT IMMUNITY, AND DROUGHT TOLERANCE” (priority 2016, published 2017)

Tests used:
[1] = test system: stomata of Arabidopsis epidermal peels; assay: Stomatal aperture in epidermal peels of Col-0 and AtGCN4 overexpressor lines; type: cell-based; details: coronatine treatment
Description: A representative histogram is depicted of stomatal aperture in Arabidopsis plant epidermal peels from wild-type Col-0 and GCN4-overexpressing (AtGCN4-OE6 and AtGCN4-OE16) lines measured 4 hours after treatment with MES buffer, COR, ABA, or COR+ABA.
Upon detection of PAMPs, stomata rapidly closes to prevent entry of the pathogen into apoplast (Melotto et al., 2006; Lee et al., 2013). […] Epidermal peels of AtGCN4 overexpressing lines were used to investigate whether stomata reopen after treatment with MES buffer (stomata opening buffer; control) or the host pathogen P. syringae pv. tomato DC3000. In wild-type Col-0, stomata reopened 3 hpi, while in the AtGCN4 overexpressor lines (AtGCN4-OE6 and AtGCN4-OE16), stomata remained closed even 4 hpi with P. syringae pv. tomato DC3000. Stomatal aperture was measured after ABA and coronatine treatments in order to investigate stomatal function in AtGCN4 overexpressor lines. ABA treatment induces stomatal closure in plants. After ABA treatment, the stomatal aperture size was reduced due to closing in both wild-type Col-0 and the AtGCN4 overexpressor lines.

[2] = target: T1, Jasmonate-Zim-Domain Protein 9 (JAZ9, At1g70700), full-length, Q8W4J8
T1 chain: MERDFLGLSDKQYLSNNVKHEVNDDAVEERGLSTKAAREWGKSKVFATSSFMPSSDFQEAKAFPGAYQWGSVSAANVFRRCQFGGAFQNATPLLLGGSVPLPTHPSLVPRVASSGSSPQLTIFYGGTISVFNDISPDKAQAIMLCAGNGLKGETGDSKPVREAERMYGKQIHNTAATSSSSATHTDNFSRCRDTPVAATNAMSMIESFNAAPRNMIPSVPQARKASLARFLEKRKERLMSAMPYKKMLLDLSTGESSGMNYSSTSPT

[3] = target: T2, AtGCN4 (Arabidopsis thaliana GCN4, general control non-repressible 4, At3G54540) (Arabidopsis thaliana, UniProt Q9M1H3 1-723); assay: title of Example 19 (yeast two-hybrid, BiFC)
T2 construct: Yeast two-hybrid fusion; in BiFC the C-terminal half of YFP was fused to the N-terminus of AtGCN4 (c-YFP-AtGCN4); also called c-YFP-AtGCN4
T2 sequence: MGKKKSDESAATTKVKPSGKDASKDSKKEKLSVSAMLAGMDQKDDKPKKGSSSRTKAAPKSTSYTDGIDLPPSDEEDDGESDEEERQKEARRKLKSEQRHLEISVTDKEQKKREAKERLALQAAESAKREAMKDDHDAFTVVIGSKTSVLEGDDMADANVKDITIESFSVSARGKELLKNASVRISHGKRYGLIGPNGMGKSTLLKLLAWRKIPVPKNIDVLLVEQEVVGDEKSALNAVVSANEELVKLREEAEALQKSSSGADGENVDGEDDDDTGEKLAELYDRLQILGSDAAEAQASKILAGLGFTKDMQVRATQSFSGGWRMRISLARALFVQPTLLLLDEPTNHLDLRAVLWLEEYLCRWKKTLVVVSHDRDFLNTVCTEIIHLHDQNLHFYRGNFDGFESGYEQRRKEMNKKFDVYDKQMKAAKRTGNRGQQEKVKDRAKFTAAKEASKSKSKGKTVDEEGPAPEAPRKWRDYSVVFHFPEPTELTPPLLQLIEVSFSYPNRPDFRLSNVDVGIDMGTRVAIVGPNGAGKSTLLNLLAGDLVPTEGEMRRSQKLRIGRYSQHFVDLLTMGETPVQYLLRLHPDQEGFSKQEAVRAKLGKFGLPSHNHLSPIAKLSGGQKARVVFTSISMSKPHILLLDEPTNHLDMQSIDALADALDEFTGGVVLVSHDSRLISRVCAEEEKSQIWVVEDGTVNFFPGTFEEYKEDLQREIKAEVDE
Excerpt: Stable transgenic lines were developed expressing GFP fused to the C-terminal end of AtGCN4 and driven under its native promoter. AtGCN4-GFP localized in guard cells, plasma membrane, and cytoplasm. Without being limited by theory, as AtGCN4 localized in the plasma membrane and guard cells, and plays role in the stomatal function, the present inventors reasoned that AtGCN4 interacts with other proteins responsible for stomatal function, such as SLAC1 and RIN4. SLAC1 closes stomata on ABA signaling (Vahisalu et al., 2008) and RIN4 activates a plasma membrane H⁺-ATPase and opens stomata (Liu et al., 2009). A yeast two-hybrid system between GCN4:SLAC1 and GCN4:RIN4 was used to investigate potential protein-protein interactions. AtGCN4 interacted with SLAC1 and RIN4. A BiFC assay (Hu et al., 2002) was used to verify these interactions in planta. AtGCN4 was co-transformed in yeast with either SLAC1 or RIN4 to observe protein-protein interaction using a yeast two-hybrid system. […] Protein-protein interactions were observed as yellow fluorescence with an equivalent bright field image. […] Protein-protein interactions were observed as yellow fluorescence while the plasma membrane was visualized as red fluorescence. […]

With `CC[C@H]1C=C(C(=O)N[C@@]2(C(=O)O)C[C@@H]2CC)[C@H]2CCC(=O)[C@H]2C1` [coronatine] the Stomatal aperture size ([1]; Col-0 plants) was “increased aperture size” and the Stomatal aperture size ([1]; GCN4 overexpressor lines) was “did not increase”.

B1: His-tagged NHR1A protein expressed in E. coli (full-length recombinant AtNHR1A, N-terminal His-tagged fusion protein) (protein)
chain: MTIVSTCCPFGLSNVTKCINFVQIKEAKTMVKYNFKKITVVPNGKQFVDIVLSRTQRQTPTVVHKGDRICKLRSFYMRKVKFTESNFNEKLSAIIDEFPRLKEIQPFYEDLLHVLYNKDHYKLALGQVNTAKNKISKIAMDYVKLLKHGDSLYRCKCLKVAALGRMCTVMKGIGPSLAYLEQVRQHIARLPSIDPNTRTLLICGCPNVGKSSFMNKVTRADVAVQPYAFTTKSLFLGHTDYKCLRYQVIDTPGLLDREIEDRNIIELCSITALAHIRAAVLFFLDISGSCGYTIAQQASLFHNIKSVFKNKPLVIVCNKTDLMPMENLSEEDRKLIEEMKDEAMKTEMGASEEAVILEMSTLTEEGVMSRLLDQRVAAKMKSKKIGDHLNRFHVAMPKSRDDQERLPCIPQVAGEKEKRKTEKDLEDENGGAGVYSASLKKNYILAKEEWKDDIIPEICDCHNVADFVDSDILNRLEELTSEESLRKAEEEEVGFEIEGEELTEKEKNDLAAIRKKKALLIEESRLKKSNAQNRAAVPRKFDKDKKFTRKRMGRELSSLGLDPSSALNRARSKSRGRKRERYDDLSNDAMDVDVNDDEQHKKKKMCLRSKSRSLSRSRSVSRPPHEVVPGEGFKDSSQKIKAIKIGHKSHRKRDKAARRGEADRVIPSLKPKHLFSGKRGNGKNQRR
In the case of B1, the “rate of GTP hydrolysis” value [2] is reported as “in the presence of JAZ9, the rate of GTP hydrolysis significantly decreased”.

B2: SLAC1 (Slow Anion Channel-Associated 1) (other, UniProt Q9LD83 1-556, looked up)
chain: MERKQSNAHSTFADINEVEDEAEQELQQQENNNNKRFSGNRGPNRGKQRPFRGFSRQVSLETGFSVLNRESRERDDKKSLPRSGRSFGGFESGGIINGGDGRKTDFSMFRTKSTLSKQKSLLPSIIRERDIENSLRTEDGETKDDSINENVSAGRYFAALRGPELDEVKDNEDILLPKEEQWPFLLRFPIGCFGICLGLSSQAVLWLALAKSPATNFLHITPLINLVVWLFSLVVLVSVSFTYILKCIFYFEAVKREYFHPVRVNFFFAPWVVCMFLAISVPPMFSPNRKYLHPAIWCVFMGPYFFLELKIYGQWLSGGKRRLCKVANPSSHLSVVGNFVGAILASKVGWDEVAKFLWAVGFAHYLVVFVTLYQRLPTSEALPKELHPVYSMFIAAPSAASIAWNTIYGQFDGCSRTCFFIALFLYISLVARINFFTGFKFSVAWWSYTFPMTTASVATIKYAEAVPGYPSRALALTLSFISTAMVCVLFVSTLLHAFVWQTLFPNDLAIAITKRKLTREKKPFKRAYDLKRWTKQALAKKISAEKDFEAEEESHH
notes: Yeast two-hybrid fusion; in BiFC the N-terminal half of YFP was fused to the C-terminus of SLAC1 (SLAC1-nYFP); also called SLAC1-nYFP
B2: binds [3].

B3: RIN4 (Rpm1 Interaction Protein 4) (other, UniProt Q8GYN5 1-211, looked up)
chain: MARSNVPKFGNWEAEENVPYTAYFDKARKTRAPGSKIMNPNDPEYNSDSQSQAPPHPPSSRTKPEQVDTVRRSREHMRSREESELKQFGDAGGSSNEAANKRQGRASQNNSYDNKSPLHKNSYDGTGKSRPKPTNLRADESPEKVTVVPKFGDWDENNPSSADGYTHIFNKVREERSSGANVSGSSRTPTHQSSRNPNNTSSCCCFGFGGK
notes: Yeast two-hybrid fusion; in BiFC the N-terminal half of YFP was fused to the C-terminus of RIN4 (RIN4-nYFP); also called RIN4-nYFP
B3: binds [3].
